Data taken from patent US20190112365A1 (EISAI R AND D MANAGEMENT, published 2019).
Read-outs that look alike come from different tables or passages of the source.

How the values were obtained:
[1] = target: T1, Human Tau 2N4R, wild type, recombinant full length (human, UniProt P10636 2-758); experiment: direct ELISA on coated 2N4R Tau
T1 construct: Full length 2N4R isoform; monomer in SPR and ELISA; heparin-induced aggregates or seeds in the functional assays; also called Tau441; Tau-441

[2] = target: T1, Human Tau 2N4R, wild type, recombinant …; experiment: direct ELISA on coated 2N4R Tau; remark: listed apart in the source
Protocol: To test direct binding to Tau, 2N4R Tau was coated on 96-well plates and various concentrations of humanized mAbs were added to the wells. MAbs bound to Tau were detected with either an HRP-conjugated anti-mouse antibody (mouse [ms]7G6) or anti-human antibody (remaining samples). Samples were incubated for 1 h at room temperature in 96-well plates coated with 2N4R Tau. Following washing, HRP-conjugated anti-mouse or anti-human detection antibodies were added to the wells. The anti-mouse antibody was used to detect ms7G6. The amount of HRP activity in each well was measured by QuantaBlu fluorescent substrate and the RFUs were detected by a SpectraMax M5 plate reader.
Tau binding was analyzed by a direct ELISA as above. Samples were incubated for 1 hour at room temperature in 96-well plates coated with wild-type 2N4R Tau. After a wash step, HRP-conjugated anti-mouse or anti-human detection antibodies were added to the wells. The anti-mouse antibody was used to detect ms7G6. The amount of HRP activity in each well was measured by QuantaBlu fluorescent substrate and the RFUs were detected by a SpectraMax M5 plate reader. […] Therefore, Vκ Glu34 was critical for antigen binding.

T1 sequence (P10636 other isoform, or with tags, fused parts or gaps limits assumed): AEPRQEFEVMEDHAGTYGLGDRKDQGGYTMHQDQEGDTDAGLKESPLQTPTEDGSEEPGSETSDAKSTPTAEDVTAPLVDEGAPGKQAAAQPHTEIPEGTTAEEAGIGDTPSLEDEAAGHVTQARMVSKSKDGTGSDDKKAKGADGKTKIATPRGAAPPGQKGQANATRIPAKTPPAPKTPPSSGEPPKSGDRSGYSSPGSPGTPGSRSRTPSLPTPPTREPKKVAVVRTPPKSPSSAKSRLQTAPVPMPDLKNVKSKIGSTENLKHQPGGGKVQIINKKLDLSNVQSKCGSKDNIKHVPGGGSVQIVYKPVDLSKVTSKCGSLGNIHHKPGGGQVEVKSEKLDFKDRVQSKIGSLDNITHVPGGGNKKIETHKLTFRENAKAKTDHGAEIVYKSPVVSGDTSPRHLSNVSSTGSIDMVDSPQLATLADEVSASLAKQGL

Binder | binding result [1] | binding result [2]
7G6-HCzu12-LCzu17 (antibody, human IgG1, kappa, V domains shown, humanized, human IgG1 kappa; also called 7G6-LCzu17) VH: EVQLLESGGGLVQPGGSLRLSCAASGYTFTTYWITWVRQAPGKGLEWVGDIYPGSSICNYNEKFKSRFTISVDNSKSTAYLQMNSLRAEDTAVYYCAREDGYDAWFAYWGQGTLVTVSS VL: DVQMTQSPSSLSASVGDRVTITCRSSQSIVHSNGNTYLNWYQQKPGKAPKLLISKVSNRFSGVPSRFSGSGSGTDFTLTISSLQPEDFATYYCFQGSHVPFTFGQGTKLEIKR | no binding | –
7G6-HCzu5-LCzu9 (antibody, human IgG1, kappa, V domains shown, humanized, human IgG1 kappa; also called 7G6-LCzu9) VH: QVQLVQSGAEVKKPGASVKVSCKASGYTFTTYWITWVRQAPGQGLEWMGDIYPGSSISNYNEKFKSRVTMTVDTSTSTAYMELSSLRSEDTAVYYCAREDGYDAWFAYWGQGTLVTVSS VL: DVVMTQSPLSLPVTLGQPASISCRSSQSIVHSNGNTYLNWFQQRPGQSPRRLISKVSNRFSGVPDRFSGSGSGTDFTLKISRVEAEDVGVYYCFQGSHVPFTFGQGTKLEIKR | – | no binding
